Article PMC5009806 (2016)

Biological target: amyloid beta monomer (Homo sapiens, UniProt P05067)
Assay: SPR

B1: Gantenerumab (antibody, V domains shown)
VH: QVELVESGGGLVQPGGSLRLSCAASGFTFSSYAMSWVRQAPGKGLEWVSAINASGTRTYYADSVKGRFTISRDNSKNTLYLQMNSLRAEDTAVYYCARGKGNTHKPYGYVRYFDVWGQGTLVTVSS
VL: DIVLTQSPATLSLSPGERATLSCRASQSVSSSYLAWYQQKPGQAPRLLIYGASSRATGVPARFSGSGSGTDFTLTISSLEPEDFATYYCLQIYNMPITFGQGTKVEIK
B1 showed a Kd of 0.018 µM.
